{"source": "paper PMC9868417", "about": "“Functional characterization of a novel aminoglycoside phosphotransferase, APH(9)-Ic, and its variant from Stenotrophomonas maltophilia” (Frontiers in Cellular and Infection Microbiology, 2023)", "test_system": "CN[C@@H]1[C@H](O)[C@H](NC)[C@H]2O[C@@]3(O)C(=O)C[C@@H](C)O[C@H]3O[C@@H]2[C@H]1O", "assay": "purified protein", "type": "biochemical, Stenotrophomonas maltophilia", "conditions": "2 mM ATP, 10 mM MgCl2, 20 mM KCl, 100 mM HEPES pH 7.0, 37 °C", "data": [{"substance": "APH(9)-Ic (Stenotrophomonas maltophilia K279a)", "values": [{"measurement": "Km", "result": "31 ± 5", "unit": "µM"}, {"measurement": "kcat", "result": "1.09 ± 0.09", "unit": "s⁻¹"}]}]}
